Reference: article PMC4823666, “Characterization of a temperature-responsive two component regulatory system from the Antarctic archaeon, Methanococcoides burtonii” (Scientific Reports, 2016)

Biological target: the molecule itself
Experiment: SEC; purified LtrK cytoplasmic domain; oligomeric state by size exclusion chromatography; data not shown

B1: LtrK (low temperature responsive sensor kinase, Mbur_0694), soluble cytoplasmic domain, residues 323-592 (domain or fragment, Methanococcoides burtonii, UniProt Q12Y17 323-592, looked up)
chain: NKTLEDEVKSKTSELERSNDYLQNANKKLKELDRLKNDFVSMVSHELKTPLTAMKTSSEFLRESECSREIKEEMLDLIIRNIDRQARMVDDLLDISRIESGKMKFTPEDVNIKEIIEISLHNVTKHAKDKSIKIMVNCPDDVPAISTDKDKLIRIFVNLLTNAIKFTPEEGEVTVIVEDHEDYLQTSIKDNGIGILEEKRDKIFDKFYQVDSTATRKAGGTGLGLAIIKGIIDGQGGKIYLESETGKGSTFTFRLPKELKEDDFTEIEGT
notes: LtrK (Mbur_0694) sensor kinase of Methanococcoides burtonii, cytoplasmic domain (HisKA and HATPase domains), residues 323-592; the N-terminal region with the transmembrane domains was deleted; A Tev site lies between GST and LtrK; Both the GST fusion (~59 kDa) and the GST-cleaved protein (~31 kDa) were purified; also called GST-LtrK; SK; source: E. coli BL21 (DE3), solubilised with Triton X-100 …
B1 was tested, and the “stoichiometry N” value was 2.
